# Assay results published in US20030069395A1 (DYAX, published 2003).
# Bridges are numbered along the chain shown (N, C = ends). Where no end group is shown, it is not given here. [ ]: non-standard residue; d: D form. fluorescein = fluorescein label; Ahx = NCCCCCC(=O)O
# B1: DX-232, Ac-AEGTGSVAWCTIFLCLDVAPEGGGK-NH2 (peptide)
# peptide: Ac-AEGTGSVAWCTIFLCLDVAPEGGGK-NH2
# modifications: not fully specified (bridges); printed as Ac-AEGTGSVAWCTIFLCLDVAPEGGGK-NH2; also: C-terminal Lys: fluorescein or coupled to NHS-Sepharose
# notes: Putative disulfide between the two Cys
# B2: phage isolate displaying VAWCTIFLCLDV (SEQ ID NO: 239) (peptide)
# chain: VAWCTIFLCLDV
# modifications: not fully specified (bridges); cysteine pairing not given here
# notes: Whole phage in the ELISA; the constant phage residues that flank the display peptide are not spelled out for the phage construct; not shown: protein III of M13 phage; the display peptide stands at its amino terminus
# B3: phage isolate displaying DWDCVTRWANRDQQCWAL (SEQ ID NO: 248) (peptide)
# chain: DWDCVTRWANRDQQCWAL
# modifications: not fully specified (bridges); cysteine pairing not given here
# notes: Whole phage in the ELISA; not shown: protein III of M13 phage; the display peptide stands at its amino terminus
# B4: phage isolate displaying DWDCVTDWANRHQHCWAL (SEQ ID NO: 249) (peptide)
# chain: DWDCVTDWANRHQHCWAL
# modifications: not fully specified (bridges); cysteine pairing not given here
# notes: as for B3
# B5: phage isolate displaying DWQCVKDWANRRRGCMAD (SEQ ID NO: 250) (peptide)
# chain: DWQCVKDWANRRRGCMAD
# modifications: not fully specified (bridges); cysteine pairing not given here
# notes: as for B3
# B6: phage isolate displaying RNMCKFSWIRSPAFCARADP (SEQ ID NO: 251) (peptide)
# chain: RNMCKFSWIRSPAFCARADP
# modifications: not fully specified (bridges); cysteine pairing not given here
# notes: as for B3
# B7: phage isolate displaying FKICDQWFCLMP (SEQ ID NO: 240) (peptide)
# chain: FKICDQWFCLMP
# modifications: not fully specified (bridges); cysteine pairing not given here
# notes: as for B3
# B8: phage isolate displaying HVGCNNALCMQY (SEQ ID NO: 241) (peptide)
# chain: HVGCNNALCMQY
# modifications: not fully specified (bridges); cysteine pairing not given here
# notes: as for B3
# B9: phage isolate displaying WKVCDHFFCLSP (SEQ ID NO: 242) (peptide)
# chain: WKVCDHFFCLSP
# modifications: not fully specified (bridges); cysteine pairing not given here
# notes: as for B3
# B10: phage isolate displaying NHGCWHFSCIWD (SEQ ID NO: 243) (peptide)
# chain: NHGCWHFSCIWD
# modifications: not fully specified (bridges); cysteine pairing not given here
# notes: as for B3
# B11: phage isolate displaying FRNCEPWMLRFGCNPR (SEQ ID NO: 244) (peptide)
# chain: FRNCEPWMLRFGCNPR
# modifications: not fully specified (bridges); cysteine pairing not given here
# notes: as for B3
# B12: phage isolate displaying ADFCEGKDMIDWVYCRLY (SEQ ID NO: 245) (peptide)
# chain: ADFCEGKDMIDWVYCRLY
# modifications: not fully specified (bridges); cysteine pairing not given here
# notes: as for B3
# B13: phage isolate displaying FWFCDRIAWYPQHLCEFLD (SEQ ID NO: 246) (peptide)
# chain: FWFCDRIAWYPQHLCEFLD
# modifications: not fully specified (bridges); cysteine pairing not given here
# notes: as for B3
# B14: DX-1002, Ac-GDLRDCQTTWPFTMMQCPNNDPGGGK-NH2 (peptide)
# peptide: Ac-GDLRDCQTTWPFTMMQCPNNDPGGGK(fluorescein)-NH2
# modifications: not fully specified (bridges); printed as Ac-GDLRDCQTTWPFTMMQCPNNDPGGGK-NH2; cysteine pairing not given here
# B15: DX-1163, Ac-GDDSMCITWPFKRPWPCANDPGGGK-NH2 (peptide)
# peptide: Ac-GDDSMCITWPFKRPWPCANDPGGGK(fluorescein)-NH2
# modifications: not fully specified (bridges); printed as Ac-GDDSMCITWPFKRPWPCANDPGGGK-NH2; cysteine pairing not given here
# B16: DX-1171, Ac-GSRSFCMDWPNHRDCDYSAPGGGK-NH2 (peptide)
# peptide: Ac-GSRSFCMDWPNHRDCDYSAPGGGK(fluorescein)-NH2
# modifications: not fully specified (bridges); printed as Ac-GSRSFCMDWPNHRDCDYSAPGGGK-NH2; cysteine pairing not given here
# B17: DX-1175, Ac-AGWTTCHIYDWFCSSSGTGGGK-NH2 (peptide)
# peptide: Ac-AGWTTCHIYDWFCSSSGTGGGK(fluorescein)-NH2
# modifications: not fully specified (bridges); printed as Ac-AGWTTCHIYDWFCSSSGTGGGK-NH2; cysteine pairing not given here
# B18: DX-1177, Ac-AGLEYCFYQWWGCPHAGTGGGK-NH2 (peptide)
# peptide: Ac-AGLEYCFYQWWGCPHAGTGGGK(fluorescein)-NH2
# modifications: not fully specified (bridges); printed as Ac-AGLEYCFYQWWGCPHAGTGGGK-NH2; cysteine pairing not given here
# B19: DX-1179, Ac-AGYQFCTWDPIFCGWHGTGGGK-NH2 (peptide)
# peptide: Ac-AGYQFCTWDPIFCGWHGTGGGK(fluorescein)-NH2
# modifications: not fully specified (bridges); printed as Ac-AGYQFCTWDPIFCGWHGTGGGK-NH2; cysteine pairing not given here
# Target: T1, human serum albumin (HSA) (human, UniProt P02768 25-609)
# T1 construct: also called caprylate-biotinylated-HSA
# Test: fluorescence anisotropy; pH 6.2, 0.14 M NaCl, no caprylate
# Protocol: (§1) Affinity determinations were made by first labeling polypeptides on the C-terminal end with NHS-fluorescein. Fluorescence anisotropy measurements were performed in 384-well microplates in a volume of 10 μl in binding buffer using a Tecan Polarion fluorescence polarization plate reader. The concentration of fluorescein labeled peptide was held constant (20 nM), and the concentration of HSA was varied. For pH 6.2, 7.1, and 7.4 binding conditions, a 3 mM phosphate, 0.01% Tween-20 buffer was used. For pH 9.1 binding conditions, a 3 mM sodium bicarbonate buffer, 0.01% Tween-20 nonionic detergent buffer was used. Once NaCl was added to any of these buffers, their pH was adjusted again to achieve the original pH. The binding mixtures were equilibrated for 10 minutes in the microplate at 30° C. prior to performing the measurement. The observed change in anisotropy was fit to the equation below via nonlinear regression to obtain the apparent KD. This equation assumes that the peptide and HSA form a reversible complex with 1:1 stoichiometry.
row,Binder,Kd [µM]
1,B1,0.5
2,"Ac-AEGTGSFKICDQWFCLMPAPE[Ahx]K(fluorescein)-NH2 (disulfide 10-15) [DX-295, Ac-AEGTGSFKICDQWFCLMPAPE-X-K-NH2]",> 100
3,"Ac-AEGTGDDWDCVTDWANRHQHCWALDPE[Ahx]K(fluorescein)-NH2 (disulfide 10-21) [DX-317, Ac-AEGTGDDWDCVTDWANRHQHCWALDPE-X-K-NH2]",> 200

# Target: T1, human serum albumin (HSA)
# Test: phage ELISA on immobilised caprylate-HSA, HRP anti-M13 antibody
# Protocol: Phage were selected as described below from a pool of three phage libraries (TN6/6, TN10/9, TN12/1). Phage were tested for ability to bind to HSA an in ELISA format using caprylate-bound HSA, which had been passively immobilized on the surface of wells of a microtiter assay plate. Binding of phage to immobilized HSA was detected by adding HRP-conjugated anti-M13 antibody. Following addition of TMB substrate, the absorbance at 620 nm was read with an automated plate reader. Phage bound to HSA is shown by diagonal striped bars; control wells (no HSA) is shown by open bars.
# For analysis of caprylate-HSA as a target, Immulon 2HB plates were prepared by the addition of 340 μl/well of caprylate-HSA at 5.6 μg/ml. The plates were incubated overnight at 4° C. The HSA-coated plates were then washed robotically with PBSCT six times (BioTek 404, BioTek Instruments). To account for plate binders, empty plates were also washed. An equal volume of each phage clone isolate was added to a plate well containing 70 μl PBSCT in both the target plate and the control plate. Plates were incubated for one hour at room temperature. The plates were washed seven times with PBSCT using the BioTek 404 apparatus. A 1:10,000 dilution of Pharmacia HRP-αM13 antibody conjugate in PBSCT was added to each well, at 100 μl/well. Plates were incubated for one hour. After incubation, plates were washed six times with PBSCT using the BioTek 404 apparatus. Following the wash, 100 μl of a 1:1 solution of the two-component TMB substrate solution was added to each well, and the plates incubated for 30 minutes. The plates were then read at 620 nm with an automatic BioTek plate reader.
row,Binder,binding result
1,B2,binds
2,B3,binds
3,B4,binds
4,B5,binds
5,B6,binds
6,B7,binds
7,B8,binds
8,B9,binds
9,B10,binds
10,B11,binds
11,B12,binds
12,B13,binds

# Target: T1, human serum albumin (HSA)
# Test: fluorescence anisotropy, fluorescein-labelled peptide, PBS
# Protocol: as §1
# Selected HSA binding polypeptides from these additional library selections were synthesized, fluorescein-labeled as in Example 1, and tested to determine an apparent KD for HSA in PBS. The polypeptides were synthesized to include an acetylated N-terminal dipeptide and a C-terminal dipeptide corresponding to the constant flanking amino acids immediately adjacent the display peptide as expressed on phage in the respective phage display libraries. The polypeptides were also synthesized with a C-terminal -Gly-Gly-Gly-Lys (SEQ ID NO: 24). The terminal Lys residue was amidated.
row,Binder,Kd [µM]
1,B14,4
2,"Ac-GDLRSCFTYYPFTTFSCSPADPGGGK(fluorescein)-NH2 (disulfide 6-17 (inferred)) [DX-1091, Ac-GDLRSCFTYYPFTTFSCSPADPGGGK-NH2]",> 10
3,B15,42
4,"Ac-GDRNMCKFSWIRSPAFCARADPGGGK(fluorescein)-NH2 (disulfide 6-17 (inferred)) [DX-321 of Table 9, Ac-GDRNMCKFSWIRSPAFCARADPGGGK-NH2]",> 10
5,"Ac-GDFSLCWIVDEDGTKWCLPDPGGGK(fluorescein)-NH2 (disulfide 6-17 (inferred)) [DX-997, Ac-GDFSLCWIVDEDGTKWCLPDPGGGK-NH2]",> 10
6,"Ac-GDSFCVTYIGTWETVCKRSDPGGGK(fluorescein)-NH2 (disulfide 5-16 (inferred)) [DX-1089, Ac-GDSFCVTYIGTWETVCKRSDPGGGK-NH2]",> 10
7,"Ac-GDNDGCTDTNWSWMFDCPPLDPGGGK(fluorescein)-NH2 (disulfide 6-17 (inferred)) [DX-1165, Ac-GDNDGCTDTNWSWMFDCPPLDPGGGK-NH2]",> 10
8,"Ac-GDSPYCKIALFQHFEVCAADDPGGGK(fluorescein)-NH2 (disulfide 6-17 (inferred)) [DX-1167, Ac-GDSPYCKIALFQHFEVCAADDPGGGK-NH2]",> 10
9,B16,165
10,"Ac-AGKWYCAWDPLVCEIFGTGGGK(fluorescein)-NH2 (disulfide 6-13 (inferred)) [DX-1173, Ac-AGKWYCAWDPLVCEIFGTGGGK-NH2]",> 10
11,B17,30
12,B18,153
13,B19,185
14,"Ac-GSLWDCWLYDCEGNAPGGGK(fluorescein)-NH2 (disulfide 6-11 (inferred)) [DX-1093, Ac-GSLWDCWLYDCEGNAPGGGK-NH2]",> 10
